Laboratory results as given in IntAct's records for PubMed 23260139.

Molecular target: vinc_mouse Vcl (UniProt Q64727)
Sequence (Q64727 whole entry): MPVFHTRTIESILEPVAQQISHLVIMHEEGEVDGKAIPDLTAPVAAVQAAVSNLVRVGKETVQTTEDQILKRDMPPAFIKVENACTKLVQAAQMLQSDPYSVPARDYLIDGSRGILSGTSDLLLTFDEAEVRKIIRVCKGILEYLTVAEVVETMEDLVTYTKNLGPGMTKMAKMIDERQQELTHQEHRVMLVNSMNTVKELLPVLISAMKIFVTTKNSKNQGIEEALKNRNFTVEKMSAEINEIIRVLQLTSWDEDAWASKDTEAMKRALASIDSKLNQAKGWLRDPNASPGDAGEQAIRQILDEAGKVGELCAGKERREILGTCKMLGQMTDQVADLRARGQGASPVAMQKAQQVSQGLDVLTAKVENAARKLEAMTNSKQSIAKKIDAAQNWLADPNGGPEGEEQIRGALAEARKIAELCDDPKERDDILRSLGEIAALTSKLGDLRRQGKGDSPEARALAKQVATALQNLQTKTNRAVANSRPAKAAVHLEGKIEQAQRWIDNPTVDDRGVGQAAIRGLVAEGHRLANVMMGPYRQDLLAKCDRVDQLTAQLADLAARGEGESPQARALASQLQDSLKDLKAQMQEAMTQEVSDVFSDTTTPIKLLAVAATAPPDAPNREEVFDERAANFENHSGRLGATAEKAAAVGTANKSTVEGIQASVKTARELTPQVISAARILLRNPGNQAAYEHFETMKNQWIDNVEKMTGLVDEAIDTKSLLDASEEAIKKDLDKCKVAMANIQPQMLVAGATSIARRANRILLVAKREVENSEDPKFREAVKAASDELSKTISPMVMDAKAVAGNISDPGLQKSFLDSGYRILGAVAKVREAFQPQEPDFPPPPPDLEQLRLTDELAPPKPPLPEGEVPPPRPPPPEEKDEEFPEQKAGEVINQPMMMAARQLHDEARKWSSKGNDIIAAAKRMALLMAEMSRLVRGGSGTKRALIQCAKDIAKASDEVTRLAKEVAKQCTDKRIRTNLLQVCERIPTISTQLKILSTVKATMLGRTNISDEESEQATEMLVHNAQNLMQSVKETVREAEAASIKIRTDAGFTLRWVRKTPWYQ

Sequence of Paxillin (Gallus gallus (Chicken)), P49024 E151Q (P49024 whole entry E151Q): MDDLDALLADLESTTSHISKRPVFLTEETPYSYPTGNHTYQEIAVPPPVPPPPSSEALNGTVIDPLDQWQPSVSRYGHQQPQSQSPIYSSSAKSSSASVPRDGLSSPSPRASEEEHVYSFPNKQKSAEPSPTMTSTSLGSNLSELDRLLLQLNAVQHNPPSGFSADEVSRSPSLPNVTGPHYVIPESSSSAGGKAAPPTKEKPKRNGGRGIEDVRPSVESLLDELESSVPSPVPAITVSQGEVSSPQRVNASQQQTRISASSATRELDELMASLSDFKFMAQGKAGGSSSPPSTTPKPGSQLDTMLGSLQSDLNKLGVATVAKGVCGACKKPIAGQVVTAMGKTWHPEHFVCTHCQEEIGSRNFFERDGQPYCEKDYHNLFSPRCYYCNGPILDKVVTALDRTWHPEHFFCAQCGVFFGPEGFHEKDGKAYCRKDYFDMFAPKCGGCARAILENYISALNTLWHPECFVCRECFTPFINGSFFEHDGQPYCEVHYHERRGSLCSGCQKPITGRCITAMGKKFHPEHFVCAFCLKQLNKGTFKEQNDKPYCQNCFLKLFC

## Paxillin (Gallus gallus (Chicken)), P49024 E151Q
  effect of a mutation on the interaction: decreasing interaction strength
